Test system: Escherichia coli TOP10
Assay: shrunken log2 fold change of peptide-encoding DNA abundance (4.5 h post-induction vs induction); higher = less antimicrobial activity (less host growth inhibition)
Conditions: time post-induction: 4.5 h; library: site-saturation at positions 5, 18, 19, 20
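Further: peptides expressed intracellularly from a pBAD plasmid library in pooled LB shake-flask culture, induced with 0.3% L-arabinose, DNA abundance read by NGS, three biological replicates, DESeq2 with apeglm shrinkage.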

Row | Sequence | shrunken log2 fold change
1 | RRIRHRPPRLPRPRPRPFGWPRP | 0.0661
2 | RRIRIRPPRLPRPRPRPIGCPRP | -0.00783
3 | RRIRDRPPRLPRPRPRPRPRPRP | 0.983
4 | RRIRERPPRLPRPRPRPQPMPRP | -0.185
5 | RRIRARPPRLPRPRPRPWCPPRP | -0.169
6 | RRIRSRPPRLPRPRPRPGNAPRP | 0.119
7 | RRIRQRPPRLPRPRPRPWIMPRP | -0.141
8 | RRIRIRPPRLPRPRPRPSQIPRP | -0.142
9 | RRIRSRPPRLPRPRPRPWGSPRP | -0.0403
10 | RRIRIRPPRLPRPRPRPQTRPRP | -0.196
11 | RRIRRRPPRLPRPRPRPQGWPRP | 0.294
12 | RRIRRRPPRLPRPRPRPRWIPRP | 0.356
13 | RRIRYRPPRLPRPRPRPIYNPRP | 0.36
14 | RRIRNRPPRLPRPRPRPMEAPRP | 0.0369
15 | RRIRIRPPRLPRPRPRPVMYPRP | -0.052
16 | RRIRRRPPRLPRPRPRPTVKPRP | 0.106
17 | RRIRLRPPRLPRPRPRPSQGPRP | 0.535
18 | RRIRGRPPRLPRPRPRPVENPRP | 0.757
19 | RRIRMRPPRLPRPRPRPKACPRP | 0.558
20 | RRIRIRPPRLPRPRPRPVELPRP | -0.0129
21 | RRIRLRPPRLPRPRPRPQVYPRP | -0.11
22 | RRIRIRPPRLPRPRPRPYPAPRP | -0.331
23 | RRIRYRPPRLPRPRPRPKVKPRP | -0.233
24 | RRIRIRPPRLPRPRPRPDKMPRP | -0.473
25 | RRIRNRPPRLPRPRPRPHTFPRP | -0.0139

Row | Sequence | shrunken log2 fold change
26 | RRIRRRPPRLPRPRPRPRHTPRP | 0.268
27 | RRIRRRPPRLPRPRPRPICKPRP | 0.0422
28 | RRIRQRPPRLPRPRPRPFMQPRP | -0.259
29 | RRIRYRPPRLPRPRPRPDTNPRP | -0.0185
30 | RRIRQRPPRLPRPRPRPYNWPRP | -0.11
31 | RRIRERPPRLPRPRPRPGVAPRP | 0.146
32 | RRIRMRPPRLPRPRPRPALQPRP | 0.791
33 | RRIRDRPPRLPRPRPRPSFHPRP | -0.429
34 | RRIRNRPPRLPRPRPRPGCDPRP | -0.0442
35 | RRIRHRPPRLPRPRPRPPFHPRP | -0.119
36 | RRIRMRPPRLPRPRPRPWFKPRP | -0.665
37 | RRIRERPPRLPRPRPRPCWYPRP | -0.0102
38 | RRIRARPPRLPRPRPRPMDMPRP | -0.128
39 | RRIRLRPPRLPRPRPRPVHTPRP | -0.0875
40 | RRIRTRPPRLPRPRPRPEYIPRP | 0.00825
41 | RRIRYRPPRLPRPRPRPGHIPRP | 0.0162
42 | RRIRSRPPRLPRPRPRPFMHPRP | -0.321
43 | RRIRYRPPRLPRPRPRPVQNPRP | -0.0153
44 | RRIRMRPPRLPRPRPRPPRHPRP | 0.955
45 | RRIRVRPPRLPRPRPRPMILPRP | -0.0833
46 | RRIRLRPPRLPRPRPRPWCHPRP | -0.441
47 | RRIRGRPPRLPRPRPRPQNTPRP | 0.0999
48 | RRIRQRPPRLPRPRPRPTTMPRP | -0.11
49 | RRIRWRPPRLPRPRPRPGTDPRP | 0.216
50 | RRIRCRPPRLPRPRPRPLKNPRP | -0.208

Row | Sequence | shrunken log2 fold change
51 | RRIRVRPPRLPRPRPRPYEPPRP | -1.29
52 | RRIRHRPPRLPRPRPRPMMVPRP | -0.0274
53 | RRIRTRPPRLPRPRPRPTACPRP | 0.277
54 | RRIRKRPPRLPRPRPRPDIQPRP | 0.867
55 | RRIRPRPPRLPRPRPRPMTFPRP | -0.0264
56 | RRIRHRPPRLPRPRPRPPNWPRP | 0.494
57 | RRIRKRPPRLPRPRPRPQQMPRP | 0.313
58 | RRIRYRPPRLPRPRPRPYVLPRP | -0.35
59 | RRIRVRPPRLPRPRPRPCCTPRP | -0.247
60 | RRIRNRPPRLPRPRPRPTGGPRP | 0.154
61 | RRIRMRPPRLPRPRPRPNDPPRP | -0.516
62 | RRIRWRPPRLPRPRPRPSRAPRP | 0.397
63 | RRIRLRPPRLPRPRPRPWHGPRP | -0.109
64 | RRIRRRPPRLPRPRPRPTFTPRP | 0.128
65 | RRIRCRPPRLPRPRPRPIKNPRP | -0.311
66 | RRIRHRPPRLPRPRPRPEFMPRP | 0.0682
67 | RRIRQRPPRLPRPRPRPVMLPRP | -0.124
68 | RRIRARPPRLPRPRPRPRDFPRP | 0.0137
69 | RRIRRRPPRLPRPRPRPASFPRP | 0.309
70 | RRIRRRPPRLPRPRPRPPMVPRP | 0.285
71 | RRIRTRPPRLPRPRPRPLWDPRP | -0.0109
72 | RRIRQRPPRLPRPRPRPRWIPRP | 0.274
73 | RRIRQRPPRLPRPRPRPFRGPRP | 0.113
74 | RRIRWRPPRLPRPRPRPMQAPRP | 1.83
75 | RRIRGRPPRLPRPRPRPCPCPRP | -0.0469
